Reference: patent publication US20250197490A1 (HBM ALPHA THERAPEUTICS, published 2025)
Like-named read-outs stand apart in the source and are kept apart here.

How the values were obtained:
biotinylated CRH [1] = target: T1, biotinylated CRH (human and mouse, UniProt P01143 145-185 (rat entry), not fully specified; biotin; which end is not stated for the result (NT-biotin and CT-biotin forms were used)); assay: ELISA, CRH (CT biotin)
T1 construct: also called biotin-CRH; CRH (NT biotin)
T1 peptide: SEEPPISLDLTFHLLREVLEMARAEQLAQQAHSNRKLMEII

[2] = target: T2, corticotropin-releasing hormone (CRH) peptide (human and mouse, UniProt P01143 145-185 (rat entry), not fully specified); assay: cell-based or functional assay
T2 peptide: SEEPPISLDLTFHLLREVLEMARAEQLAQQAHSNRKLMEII

biotinylated CRH [3] = target: T1, biotinylated CRH; assay: ELISA, CRH (CT biotin)
biotinylated CRH [4] = target: T1, biotinylated CRH; assay: ELISA, CRH (CT biotin)
Protocol: (§1) Streptavidin (Thermo, Cat: 21125) was diluted in PBS to a concentration of 2 μg/ml. 100 μl of diluted streptavidin was added per well to ELISA microplates, and the plates were incubated overnight at 4° C. […] Subsequently, plates were washed and incubated with HRP-conjugated goat anti-human IgG (H+L) antibody (Jackson, Cat: 109-035-088) at 37° C. for 1 hour. 100 μL of 3,3′,5,5′-tetramethylbenzidine (TMB) substrate (Biopanda, Cat: TMB-S-003) was added, and the plates were incubated at room temperature for 15 minutes. 100 μL of ELISA stopping solution (Solarbio, Cat #: C1058) was added to terminate the reaction, and the optical density at 450 nm (OD450 nm) was determined by an ELISA plate reader (Molecular Devices, Spectra max 384 plus).
(§2) These potential PTMs were mutated individually either in HCDR2 alone, in LCDR1 alone, or in various combinations of mutations, as detailed in Table 3. […] Most ΔPTM variants retained functional activities.

[5] = target: T2, corticotropin-releasing hormone (CRH) …; assay: cell-based or functional assay
biotinylated CRH [6] = target: T1, biotinylated CRH; assay: ELISA, CRH (NT biotin)
Protocol: as §1, §2

[7] = target: T2, corticotropin-releasing hormone (CRH) …; assay: cell-based or functional assay
biotinylated CRH [8] = target: T1, biotinylated CRH; assay: ELISA, CRH (NT biotin)
biotinylated CRH [9] = target: T1, biotinylated CRH; assay: ELISA, CRH (NT biotin)
biotinylated CRH [10] = target: T1, biotinylated CRH; assay: ELISA, CRH (NT biotin)
[11] = target: T2, corticotropin-releasing hormone (CRH) …; assay: cell-based or functional assay
[12] = target: T2, corticotropin-releasing hormone (CRH) …; assay: cell-based or functional assay

EC50 (read off the curve) (biotinylated CRH [1]): ~30 pM | IC50 (read off the curve), CRH-induced hCRHR1 luciferase reporter [2]: ~3000 pM | EC50 (read off the curve) (biotinylated CRH [3]): ~10 pM | EC50 (read off the curve) (biotinylated CRH [4]): ~50 pM | IC50 (read off the curve), CRH-induced mCRHR1 luciferase reporter [5]: ~5000 pM | EC50 (read off the curve) (biotinylated CRH [6]): ~30 pM | IC50 (read off the curve), CRH-induced hCRHR1 luciferase reporter [7]: ~3000 pM | EC50 (read off the curve) (biotinylated CRH [8]): ~10 pM | EC50 (read off the curve) (biotinylated CRH [9]): ~10 pM | EC50 (read off the curve) (biotinylated CRH [10]): ~50 pM | IC50 in the hCRHR1 reporter assay [11]: ~5000 pM | IC50 (read off the curve), CRH-induced mCRHR1 luciferase reporter [12]: ~8000 pM
B1: PR004290 (antibody, human IgG1, kappa, V domains shown)
VH: EVQLVESGGVLVQPGGSLRLSCAASGFTFSSYWMTWVRQAPGKGLEWVANIKQDGSEKYYVDSVKGRFTISRDNAKNSLFLQMNSLRAEDTAVYYCARTLIFDYWGQGTLVTVSS
VL: DIVMTQSPLSLPVTPGEPASISCRSSQSLLHSTGYNSLEWYLQKPGQSPQLLIYLGSNRASGVPDRFSGSGSGTDFTLKISRVEAEDVGIYYCMQTLQTPITFGQGTRLEIKR
notes: human IgG1 wildtype Fc; also called Hybridoma Clone 28b3
